Data published in article PMC4951694.

Key:
Test in all cases: ITC; 10 μM β3 peptide in the sample cell titrated with αIIb peptide; bicelles of 43 mM DHPC, 17 mM POPC, 25 mM NaH2PO4/Na2HPO4 pH 7.4, 28 °C; stoichiometry fixed at 1:1
[1] = molecular target: integrin β3 TM peptide (human) (UniProt P05106)
[2] = molecular target: integrin β3(A711P) TM peptide (human) (UniProt P05106)
[3] = molecular target: integrin β3(W715Y) TM peptide (human) (UniProt P05106)
[4] = molecular target: integrin β3(A711P/L712A) TM peptide (human) (UniProt P05106)
[5] = molecular target: integrin β3(A711P/W715Y) TM peptide (human) (UniProt P05106)
[6] = molecular target: integrin β3(L712A) TM peptide (human) (UniProt P05106)

KXY [1]	dH [1] [kcal/mol]	KXY [2]	dH [2] [kcal/mol]	KXY [3]	dH [3] [kcal/mol]	KXY [4]	dH [4] [kcal/mol]	KXY [5]	dH [5] [kcal/mol]	KXY [6]	dH [6] [kcal/mol]	Substance
1080	-14.2	5500	-16.2	–	–	–	–	–	–	–	–	integrin αIIb(G972A) TM peptide (from UniProt P08514 989-1029)
–	–	4000	-5.6	–	–	–	–	–	–	–	–	integrin αIIb(R995A) TM peptide (from UniProt P08514 989-1029)
–	–	12700	-16.9	1300	-14.2	4200	-12.8	2200	-14.4	1900	-12	integrin αIIb TM peptide (from UniProt P08514 989-1029)
